The data set concerns the molecule itself. Kind of data set: crystal structure.

The stoichiometry N is a count of units in the complex or per binding partner.

B1: Y93H ttCK (uridine-cytidine kinase TTHA0578 of Thermus thermophilus HB8, Tyr93 replaced by His) (enzyme)
chain: MSAPKPFVIGIAGGTASGKTTLAQALARTLGERVALLPMDHYYKDLGHLPLEERLRVNYDHPDAFDLALYLEHAQALLRGLPVEMPVYDFRAHTRSPRRTPVRPAPVVILEGILVLYPKELRDLMDLKVFVDADADERFIRRLKRDVLERGRSLEGVVAQYLEQVKPMHLHFVEPTKRYADVIVPRGGQNPVALEMLAAKALARLARMGAA
Turning to B1, the “stoichiometry N” value came out at 4.

For the origin of these results see PMC5614712 (Biochemistry and Biophysics Reports, 2017).
